Source: patent publication US20260242834A1, “ENZYMES, POLYNUCLEOTIDES ENCODING SAME, AND METHODS OF USING SAME FOR PRODUCING MESCALINE” (YEDA RESEARCH AND DEVELOPMENT CO. LTD., priority 2023, published 2026)

How the values were obtained:
[1] = molecular target: 5-HT2A serotonin receptor (Homo sapiens, UniProt P28223); details: 5-HT2A serotonin receptor agonist, cited from earlier work
[2] = tested on: N. benthamiana leaves; experiment: Transient expression in N. benthamiana leaves by agroinfiltration; assay type: cell-based, Nicotiana benthamiana; details: tyramine 4 to dopamine 3 and 3-MeO-tyramine 7 to 3,4-diOH-5-MeO-phenethylamine 6
Source text: TyDC2, CYP1-12, PPO1, MT1-4, OMT1,5,10,11 and the previously characterized BvCYP76AD6 were amplified and cloned in pAlpha2-NPT II-Ubq10-CCD-Ter10 vector digested with BsaI using ClonExpress II One Step Cloning kit (Vazyme). For BvCYP76AD6 the inventors used stocks of previously transformed bacteria containing the specific gene (Polturak et al., 2016; New Phyol.). All plasmids were sequenced and transformed into Agrobacterium tumefaciens strain GV3101 by electroporation. A. tumefaciens harboring the overexpression constructs were grown overnight at 28° C. in Luria-Bertani (LB) medium in the presence of kanamycin and gentamycin. Bacterial cells were collected by centrifugation, washed, and resuspended in infiltration buffer (10 mM MES, 2 mM MgCl2, 2 mM Na3PO4, 0.5% glucose and 100 mM acetosyringone) to OD600=0.8. Individual and/or equal volumes of A. tumefaciens suspension with different expression vectors were combined to obtain the desired gene combinations and incubated for 2 h at room temperature. The solutions were infiltrated into 4- or 5-week-old N. benthamiana leaves from the abaxial side using a 1-ml needleless syringe. […] Leaf samples were flash frozen and extracted as previously described with 300 μl ice-cold methanol with 0.1% formic acid and analyzed via LC-MS. […]

[3] = tested on: 3-MeO-tyramine 7; experiment: Heterologous expression in yeast supplemented with 3-MeO-tyramine 7; assay type: cell-based, S. cerevisiae; details: two days from galactose induction; compared with LwCYP84A220
[4] = OMT in vitro assays with lysates from transformed E. coli in the presence of SAM; assay type: biochemical, Lophophora williamsii (Peyote); details: substrates 3, 6 or 9

5-HT2A serotonin receptor, sequence (P28223 whole entry): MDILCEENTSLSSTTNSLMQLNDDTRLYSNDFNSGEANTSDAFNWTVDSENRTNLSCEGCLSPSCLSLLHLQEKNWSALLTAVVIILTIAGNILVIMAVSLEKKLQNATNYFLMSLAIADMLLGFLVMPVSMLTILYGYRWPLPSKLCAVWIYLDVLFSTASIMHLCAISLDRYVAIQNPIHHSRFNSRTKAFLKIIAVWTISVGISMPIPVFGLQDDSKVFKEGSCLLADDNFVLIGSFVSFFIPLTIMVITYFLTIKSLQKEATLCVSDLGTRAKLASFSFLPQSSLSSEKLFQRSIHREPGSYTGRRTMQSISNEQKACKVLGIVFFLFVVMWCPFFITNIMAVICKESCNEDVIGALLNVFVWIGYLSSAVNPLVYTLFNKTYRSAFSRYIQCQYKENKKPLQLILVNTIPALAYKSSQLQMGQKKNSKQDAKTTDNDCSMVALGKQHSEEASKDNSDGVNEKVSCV

COc1cc(CCN)cc(OC)c1OC [Mescaline]
times less potent effects than LSD ([1]; compared with LSD): 1,000-3,000 times | times less potent than psilocybin ([1]; compared with psilocybin): 30 times

B1: LwCYP12: Peyote CYP76AD-subfamily cytochrome P450 hydroxylase (protein, listed as Lophophora williamsii)
chain: MGYYAIFAVVLPFLWTCFYLLKLNPTSKLTSTIRLPPGPRPLPIIGNLHQLGERPHRTLANLAKVYGPIISLKFGSITTIAVSSADVAKEMFQKHDLALASRKVPAAVRANGHDNFSVAWLPVTPKWRFLRKISAIQLFSTQRLDARQSLRQAKVVELLDYIKARSNAGEPVDIGEAAFTTSLNLLSNTFFSMDLASYSSAASGEFKELVWKIMEEIGKPNLADCFPLVGFISRMSVNRELMGYGNKLNEVFAEIIEKRLSAANSSEGRGNGDVLDTLLRIMEEDDSELSLDDIMHLLMDFFTAGTDTTSSTLEWAMTELLHNPEKMAKAQAELEQVLGKDTVSIQESDIAKLLYLQATVKETLRMHPPTVFLLPRKADSDIDLYGHLVPKNAQVFVNLWAISYDPSTWENPDLFSPERFLDQDIDMKGQDFGFIPFGAGRRICPGLTLAYRMLNLMLGTLIHVFNWKLGDGLSREDLDMTDKFGITIQKAKPLRAIPILK
hydroxylation activity in planta [2]: regioselectively catalyzes the two meta hydroxylations | catalytic activity for the production of 3,4-diOH-5-MeO-phenethylamine 6 [3]: superior catalytic activity

B2: OMT5: Peyote O-methyltransferase (protein, listed as Lophophora williamsii)
chain: MGSASGSAERTQMGEDEACSFAMTITSGSVPPMVLKAVIELDVLEIIKRAGPGAHLSPAEIAAQLPTTNPGAAAMLDRMLRLLASYDVLSYSLHTLPDGRVERLYGLAPVCQFLTNNEDGVTLSALSLMNQDKVLMESWYHLKDAVLDGGIPFNKAYGMTAFEYHGTDPRFNKVFNNGMSNHSTITMKKLLENYKGFEGVSTLVDVGGGTGATLNMIISKHPTIKGINFDLPHVIEDAPTYPGVEHIGGDMFVSVPKGDAIFMKWICHDWSDEHCLKFLKNCYAALADHGKVIVCEYILPVAPETNHAARTVFHVDAIMLAHNPGGKERTEQEFESLAKGAGFEGFRVACSAYDTKVMEFLKNN
O-methylation regioselectivity [4]: O-methylated the two meta hydroxyl groups
